Results as given in paper PMC7888922.

Biological target: sACE2_(2).v2.4-IgG1 (human) (UniProt Q9BYF1)
Assay: BLI

Row | Substance | Kd [pM] | koff [s⁻¹] | kon [M⁻¹ s⁻¹]
1 | SARS-CoV-2 RBD-N501Y (8his-tagged) (from UniProt P0DTC2 333-529) (domain or fragment) | < 100 | 0.00011 | 360000
2 | SARS-CoV-2 RBD-Y449K (8his-tagged) (from UniProt P0DTC2 333-529) (domain or fragment) | 900 | 0.004 | 4.3e+06
